The target of this assay is IL-13 receptor (IL-4Rα/IL-13Rα1) on TF-1 cells (human) (UniProt P78552). The assay can be described thus: cell-based or functional assay.
Sequence of IL-13 receptor (IL-4Rα/IL-13Rα1) on TF-1 cells (human) (P78552 22-427, chain 1 of 2): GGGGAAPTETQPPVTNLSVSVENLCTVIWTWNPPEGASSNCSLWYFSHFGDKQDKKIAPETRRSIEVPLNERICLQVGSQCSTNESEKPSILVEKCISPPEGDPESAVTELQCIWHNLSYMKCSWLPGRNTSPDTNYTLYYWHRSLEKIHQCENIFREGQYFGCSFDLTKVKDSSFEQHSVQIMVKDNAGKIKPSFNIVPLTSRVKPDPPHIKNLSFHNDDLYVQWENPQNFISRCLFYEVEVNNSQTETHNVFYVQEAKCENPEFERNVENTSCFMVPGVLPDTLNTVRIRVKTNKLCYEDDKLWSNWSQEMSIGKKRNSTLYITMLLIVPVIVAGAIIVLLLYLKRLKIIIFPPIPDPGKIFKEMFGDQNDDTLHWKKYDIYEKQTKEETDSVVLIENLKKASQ
Sequence of IL-13 receptor (IL-4Rα/IL-13Rα1) on TF-1 cells (human) (P24394 26-825, chain 2 of 2, further chain): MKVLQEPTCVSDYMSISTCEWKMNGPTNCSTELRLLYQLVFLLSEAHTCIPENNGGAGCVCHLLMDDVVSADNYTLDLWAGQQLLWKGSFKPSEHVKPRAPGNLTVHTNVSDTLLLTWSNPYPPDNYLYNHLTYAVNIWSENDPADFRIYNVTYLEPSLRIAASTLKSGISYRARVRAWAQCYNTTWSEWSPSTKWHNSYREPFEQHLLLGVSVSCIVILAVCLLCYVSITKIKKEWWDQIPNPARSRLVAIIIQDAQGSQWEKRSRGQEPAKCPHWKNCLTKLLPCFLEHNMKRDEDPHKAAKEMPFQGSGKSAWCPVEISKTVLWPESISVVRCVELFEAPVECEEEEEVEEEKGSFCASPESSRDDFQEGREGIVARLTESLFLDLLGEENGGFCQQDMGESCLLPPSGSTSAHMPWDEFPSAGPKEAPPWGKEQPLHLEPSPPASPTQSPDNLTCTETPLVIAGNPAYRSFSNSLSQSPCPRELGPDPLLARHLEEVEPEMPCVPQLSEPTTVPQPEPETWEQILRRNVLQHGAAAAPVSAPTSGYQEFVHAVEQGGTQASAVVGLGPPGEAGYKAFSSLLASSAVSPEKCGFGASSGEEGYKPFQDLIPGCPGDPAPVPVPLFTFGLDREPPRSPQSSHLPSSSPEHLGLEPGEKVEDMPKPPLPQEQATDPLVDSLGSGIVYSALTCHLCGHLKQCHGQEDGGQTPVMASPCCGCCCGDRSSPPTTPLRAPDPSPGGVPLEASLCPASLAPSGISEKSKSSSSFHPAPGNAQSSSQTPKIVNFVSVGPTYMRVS

With “IL-13Q111 K105A (from UniProt P35225 35-146) (ligand)”, the Concentration of IL-13 required for 50% TF-1 cell proliferation (ED50, ave) turned out to be 22.6 ng/mL. Then “human IL-13 with glutamine at position 111 (IL-13Q111) (from UniProt P35225 35-146) (ligand)”, with 1.26 ng/mL; and “wild type human IL-13 with arginine in the 111 position (from UniProt P35225 35-146) (ligand)”, with 1.2 ng/mL; and “IL-13Q111 K97A (from UniProt P35225 35-146) (ligand)”, with 1.33 ng/mL. “IL-13Q111 K104A (from UniProt P35225 35-146) (ligand)” showed a Concentration of IL-13 required for 50% TF-1 cell proliferation (ED50, ave) of 46.2 ng/mL.

Take “IL-13Q111 R108A (from UniProt P35225 35-146) (ligand)”: the Concentration of IL-13 required for 50% TF-1 cell proliferation (ED50, ave) amounted to 3.2 ng/mL.

“IL-13Q111 H102A (from UniProt P35225 35-146) (ligand)” showed a Concentration of IL-13 required for 50% TF-1 cell proliferation (ED50, ave) of 5.31 ng/mL.

For “IL-13Q111 K25A (from UniProt P35225 35-146) (ligand)”, the Concentration of IL-13 required for 50% TF-1 cell proliferation (ED50, ave) stood at 2.64 ng/mL.

The values are drawn from patent US20110009361A1.
